Consider two molecules from paper PMC2504306 (Nucleic Acids Research, 2008).

Broadly, the Kd is a measure of binding affinity in units of concentration. High values mean weaker binding, low ones tighter binding. What is called koff is a measure of how fast the partners let go of each other. Read a low koff as a long-lived complex. A word on the kon: it is the second-order rate constant of association. A low value points to slower complex formation.

Where two headings read alike, the source gives them in different places.

Holding throughout (assay): SPR
Experiment [1] has as its target C-terminal topoisomerase domain of Sulfolobus solfataricus reverse gyrase TopR1 (Sulfolobus solfataricus P2) (UniProt Q97ZZ8).
The target of experiment [2] is T1, C-terminal topoisomerase domain of Sulfolobus solfataricus reverse gyrase TopR1 (Sulfolobus solfataricus P2, UniProt Q97ZZ8 605-1242).
T1 sequence (looked up): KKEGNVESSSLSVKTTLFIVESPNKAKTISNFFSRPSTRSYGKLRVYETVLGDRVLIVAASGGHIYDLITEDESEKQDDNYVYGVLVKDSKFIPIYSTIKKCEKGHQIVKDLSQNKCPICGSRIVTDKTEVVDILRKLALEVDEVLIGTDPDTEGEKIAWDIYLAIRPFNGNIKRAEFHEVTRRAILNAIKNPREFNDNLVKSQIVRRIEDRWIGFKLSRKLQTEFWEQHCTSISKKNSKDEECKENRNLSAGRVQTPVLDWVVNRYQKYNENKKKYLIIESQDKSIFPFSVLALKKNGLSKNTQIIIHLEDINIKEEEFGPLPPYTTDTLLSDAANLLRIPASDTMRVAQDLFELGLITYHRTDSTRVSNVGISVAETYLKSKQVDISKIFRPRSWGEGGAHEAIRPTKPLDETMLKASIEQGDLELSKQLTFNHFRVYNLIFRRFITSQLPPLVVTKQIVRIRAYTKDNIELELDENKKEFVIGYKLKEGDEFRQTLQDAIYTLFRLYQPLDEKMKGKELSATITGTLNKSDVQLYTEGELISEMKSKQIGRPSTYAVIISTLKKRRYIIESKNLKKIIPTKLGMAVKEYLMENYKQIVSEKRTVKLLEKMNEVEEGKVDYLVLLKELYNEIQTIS

Experiment [3] addresses T1, C-terminal topoisomerase domain of …. This is another data set of the same source.
Experiment [4] has the same target. This is another data set of the same source.

For “non-specific DNA-binding protein Smj12 of S. solfataricus (natural protein)”, in experiment [1], the Ka worked out at 284 M⁻¹, the Kd was determined as 3530 µM, the koff turned out to be 0.00313 s⁻¹ and the kon was found to be 0.887 M⁻¹ s⁻¹.

B1: N-terminal ATPase (helicase-like) domain of Sulfolobus solfataricus reverse gyrase TopR1 (domain or fragment, Sulfolobus solfataricus P2, UniProt Q97ZZ8 1-607, looked up)
chain: MTSINKVPPSIYTRSCPNCGGNISSQRLFNGSVCESCLKDDREFSNLSDLINILSENSNLKNLTQIRDVLEEYKKVEEIFGKLLNNSKPIGPQRSWTIRFLRGESFAIIAPPGLGKTTFGLIMSLYNATRNRKSIIIFPTRTLISQTVDKLAKFSELYSYSPRILYNKQSPTQTENILDQLKSGNFDIFISTNRFVIQNLSELSNIKFDFIFVDDVDAALKSGKSAKAILRLVGFTDEDIQTTMKLLRENIGEEEKFGKIQEIRESRLKDKIVIFSSATISRGNPILSSLMGFRPGSSVIYLRNIYDSYIDLTQTCKGQDFEECTLGTVIKLLKRLNDGTLIFVPIDKGAQYADYLASNLRDHGINVESVASSSISKLEKFERGEVSSLVGVATHYGVLVRGIDLPWRVKYSIFVGIPKFKFKIGEYMHPLALTRLLSLVYLVKNDDKVRGLLSYIRKRLRKISPAALAMLAKDIREGKIDDERLKEAYNLVNEYLKDNEFLKKVSDVGDLVIEGDYILMPDYLTYIQASGRTSRLYGANLTTGLSVLLIDNSRLFELLNKKLNLILDEVKWYSLDIDADKLGQVSLSDISAKITEERESLSKIKKE
On to B1, for which, in experiment [2], the Ka came to 7.59e+06 M⁻¹, the Kd is 0.132 µM, the dissociation rate constant (koff) worked out at 0.00187 s⁻¹ and the kon was determined as 14200 M⁻¹ s⁻¹. In experiment [3], this molecule yielded a Ka of 6.32e+06 M⁻¹, a Kd of 0.158 µM, a koff of 0.00109 s⁻¹ and a kon of 6900 M⁻¹ s⁻¹. In experiment [4], this molecule showed a Ka of 2.87e+06 M⁻¹, a Kd of 0.349 µM, a koff of 0.00152 s⁻¹ and a kon of 4350 M⁻¹ s⁻¹.
